Experimental data reported in patent publication US20260250318A1, “COMPOSITIONS AND METHODS FOR CROSSING THE BLOOD BRAIN BARRIER” (VOYAGER THERAPEUTICS, INC., priority 2022, published 2026).

T1: ALPL (Homo sapiens, UniProt P05186)
T1 construct: expressed in transfected cells; host or cells: HEK 293T
T1 sequence (P05186 whole entry, looked up): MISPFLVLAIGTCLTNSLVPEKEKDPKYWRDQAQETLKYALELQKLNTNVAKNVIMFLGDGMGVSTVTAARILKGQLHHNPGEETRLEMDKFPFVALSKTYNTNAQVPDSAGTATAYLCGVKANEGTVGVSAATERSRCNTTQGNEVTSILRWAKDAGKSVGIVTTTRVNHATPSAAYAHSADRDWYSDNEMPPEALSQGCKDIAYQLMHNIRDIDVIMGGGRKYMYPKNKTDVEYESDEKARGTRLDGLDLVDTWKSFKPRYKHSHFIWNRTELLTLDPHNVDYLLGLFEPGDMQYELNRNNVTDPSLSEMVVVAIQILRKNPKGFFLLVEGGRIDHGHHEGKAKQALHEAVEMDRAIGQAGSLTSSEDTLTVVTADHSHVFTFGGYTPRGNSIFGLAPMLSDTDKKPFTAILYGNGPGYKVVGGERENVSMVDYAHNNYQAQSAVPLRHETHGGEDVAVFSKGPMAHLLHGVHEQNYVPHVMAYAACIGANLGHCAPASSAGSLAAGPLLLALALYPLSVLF

T2: AAVR (Homo sapiens, UniProt Q8IZA0)
T2 construct: expressed in transfected cells; host or cells: HEK 293T
T2 sequence (Q8IZA0 whole entry, looked up): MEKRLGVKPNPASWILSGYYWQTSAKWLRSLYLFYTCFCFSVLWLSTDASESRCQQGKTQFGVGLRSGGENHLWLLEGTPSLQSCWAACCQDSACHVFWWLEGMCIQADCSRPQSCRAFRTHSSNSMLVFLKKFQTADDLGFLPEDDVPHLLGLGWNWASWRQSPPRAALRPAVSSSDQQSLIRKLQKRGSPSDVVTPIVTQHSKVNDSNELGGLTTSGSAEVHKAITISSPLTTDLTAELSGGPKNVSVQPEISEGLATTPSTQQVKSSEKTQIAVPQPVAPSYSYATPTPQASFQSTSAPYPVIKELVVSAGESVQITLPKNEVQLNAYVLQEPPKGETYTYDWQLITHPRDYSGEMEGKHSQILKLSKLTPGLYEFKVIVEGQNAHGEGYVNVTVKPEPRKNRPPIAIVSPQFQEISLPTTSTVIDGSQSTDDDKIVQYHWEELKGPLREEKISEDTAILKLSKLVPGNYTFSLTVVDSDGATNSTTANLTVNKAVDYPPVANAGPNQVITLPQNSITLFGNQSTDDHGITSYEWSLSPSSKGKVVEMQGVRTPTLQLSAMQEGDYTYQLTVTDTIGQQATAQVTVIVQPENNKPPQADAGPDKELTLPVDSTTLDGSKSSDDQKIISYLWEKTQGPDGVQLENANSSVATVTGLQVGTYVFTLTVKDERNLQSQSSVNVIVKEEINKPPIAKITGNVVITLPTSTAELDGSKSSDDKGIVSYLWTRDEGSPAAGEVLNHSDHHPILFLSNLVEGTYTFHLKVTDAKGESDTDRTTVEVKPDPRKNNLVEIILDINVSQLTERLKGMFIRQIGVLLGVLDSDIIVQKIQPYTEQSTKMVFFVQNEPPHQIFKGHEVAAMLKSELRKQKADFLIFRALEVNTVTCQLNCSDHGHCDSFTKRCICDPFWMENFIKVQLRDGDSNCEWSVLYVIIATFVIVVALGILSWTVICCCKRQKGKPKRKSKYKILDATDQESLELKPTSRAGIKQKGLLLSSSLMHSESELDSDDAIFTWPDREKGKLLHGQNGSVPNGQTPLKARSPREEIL

B1: TTM-006: AAV9 capsid variant, full length capsid sequence of Table 4 (protein)
chain: MAADGYLPDWLEDNLSEGIREWWALKPGAPQPKANQQHQDNARGLVLPGYKYLGPGNGLDKGEPVNAADAAALEHDKAYDQQLKAGDNPYLKYNHADAEFQERLKEDTSFGGNLGRAVFQAKKRLLEPLGLVEEAAKTAPGKKRPVEQSPQEPDSSAGIGKSGAQPAKKRLNFGQTGDTESVPDPQPIGEPPAAPSGVGSLTMASGGGAPVADNNEGADGVGSSSGNWHCDSQWLGDRVITTSTRTWALPTYNNHLYKQISNSTSGGSSNDNAYFGYSTPWGYFDFNRFHCHFSPRDWQRLINNNWGFRPKRLNFKLFNIQVKEVTDNNGVKTIANNLTSTVQVFTDSDYQLPYVLGSAHEGCLPPFPADVFMIPQYGYLTLNDGSQAVGRSSFYCLEYFPSQMLRTGNNFQFSYEFENVPFHSSYAHSQSLDRLMNPLIDQYLYYLSKTEKMSGSPHSKAQNQQTLKFSVAGPSNMAVQGRNYIPGPSYRQQRVSTTVTQNNNSEFAWPGASSWALNGRNSLMNPGPAMASHKEGEDRFFPLSGSLIFGKQGTGRDNVDADKVMITNEEEIKTTNPVATESYGQVATNHQSAQAQAQTGWVQNQGILPGMVWQDRDVYLQGPIWAKIPHTDGNFHPSPLMGGFGMKHPPPQILIKNTPVPADPPTAFNKDKLNSFITQYSTGQVSVEIEWELQKENSKRWNPEIQYTSNYYKSNNVEFAVNTEGVYSEPRPIGTRYLTRNL
B2: TTM-018: AAV9 capsid variant, full length capsid sequence of Table 4 (protein)
chain: MAADGYLPDWLEDNLSEGIREWWALKPGAPQPKANQQHQDNARGLVLPGYKYLGPGNGLDKGEPVNAADAAALEHDKAYDQQLKAGDNPYLKYNHADAEFQERLKEDTSFGGNLGRAVFQAKKRLLEPLGLVEEAAKTAPGKKRPVEQSPQEPDSSAGIGKSGAQPAKKRLNFGQTGDTESVPDPQPIGEPPAAPSGVGSLTMASGGGAPVADNNEGADGVGSSSGNWHCDSQWLGDRVITTSTRTWALPTYNNHLYKQISNSTSGGSSNDNAYFGYSTPWGYFDFNRFHCHFSPRDWQRLINNNWGFRPKRLNFKLFNIQVKEVTDNNGVKTIANNLTSTVQVFTDSDYQLPYVLGSAHEGCLPPFPADVFMIPQYGYLTLNDGSQAVGRSSFYCLEYFPSQMLRTGNNFQFSYEFENVPFHSSYAHSQSLDRLMNPLIDQYLYYLSKTINGHDSPHSKAQNLQTLKFSVAGPSNMAVQGRNYIPGPSYRQQRVSTTVTQNNNSEFAWPGASSWALNGRNSLMNPGPAMASHKEGEDRFFPLSGSLIFGKQGTGRDNVDADKVMITNEEEIKTTNPVATESYGQVATNHQSAQAQAQTGWVQNQGILPGMVWQDRDVYLQGPIWAKIPHTDGNFHPSPLMGGFGMKHPPPQILIKNTPVPADPPTAFNKDKLNSFITQYSTGQVSVEIEWELQKENSKRWNPEIQYTSNYYKSNNVEFAVNTEGVYSEPRPIGTRYLTRNL
B3: TTM-019: AAV9 capsid variant, full length capsid sequence of Table 4 (protein)
chain: MAADGYLPDWLEDNLSEGIREWWALKPGAPQPKANQQHQDNARGLVLPGYKYLGPGNGLDKGEPVNAADAAALEHDKAYDQQLKAGDNPYLKYNHADAEFQERLKEDTSFGGNLGRAVFQAKKRLLEPLGLVEEAAKTAPGKKRPVEQSPQEPDSSAGIGKSGAQPAKKRLNFGQTGDTESVPDPQPIGEPPAAPSGVGSLTMASGGGAPVADNNEGADGVGSSSGNWHCDSQWLGDRVITTSTRTWALPTYNNHLYKQISNSTSGGSSNDNAYFGYSTPWGYFDFNRFHCHFSPRDWQRLINNNWGFRPKRLNFKLFNIQVKEVTDNNGVKTIANNLTSTVQVFTDSDYQLPYVLGSAHEGCLPPFPADVFMIPQYGYLTLNDGSQAVGRSSFYCLEYFPSQMLRTGNNFQFSYEFENVPFHSSYAHSQSLDRLMNPLIDQYLYYLSKTVNGHDSPHSKAQNQQTLKFSVAGPSNMAVQGRNYIPGPSYRQQRVSTTVTQNNNSEFAWPGASSWALNGRNSLMNPGPAMASHKEGEDRFFPLSGSLIFGKQGTGRDNVDADKVMITNEEEIKTTNPVATESYGQVATNHQSAQAQAQTGWVQNQGILPGMVWQDRDVYLQGPIWAKIPHTDGNFHPSPLMGGFGMKHPPPQILIKNTPVPADPPTAFNKDKLNSFITQYSTGQVSVEIEWELQKENSKRWNPEIQYTSNYYKSNNVEFAVNTEGVYSEPRPIGTRYLTRNL

How the values were obtained:
Format in all cases: cell-based
ALPL = target: T1, ALPL; conditions: for Luciferase Activity (fold change relative to pCMV6 transfected cells): Table 28, ALPL transfected cells; for fold increase in transduction by luciferase assay in cells expressing ALPL: relative to pCMV6 transfected cells, 24 hours post-transduction
Method: (§1) Briefly, a transduction assay was performed in that HEK 293T cells were transfected via calcium phosphate transfection with a plasmid expressing ALPL, an AAVR positive control, or a pCMV6 negative control (250 ng or 500 ng of plasmid). AAVR is a universal AAV entry factor involved in AAV transduction. […] At 24-hours post-transduction, GFP expression and luciferase activity were measured to quantify and observe AAV cellular transduction. […] The TTM-002, TTM-006, TTM-018, and TTM-019 capsid variants all comprised the SPH motif immediately subsequent to position 455, numbered relative to SEQ ID NO: 138 and a positive residue in one of the next three residues subsequent to the SPH motif.
(§2) To determine if the TTM-001 and TTM-002 capsid variants could bind to both the human ALPL protein (NM_000478.6, which is incorporated by reference herein) and the mouse ALPL ortholog (NM_001287172.1, which is incorporated by reference herein), HEK 293T cells were transfected via calcium phosphate transfection with a plasmid expressing human ALPL, the murine ortholog of ALPL, or a pCMV6 negative control. At 24 hours post-transfection, the HEK 293T cells expressing the ALPL receptor were transduced with an AAV particle comprising the TTM-001 capsid variant, the TTM-002 capsid variant, or an AAV9 control capsid protein, expressing a Luc2-GFP payload. At 24-hours post-transduction, luciferase activity (RLU) was measured to quantify AAV cellular transduction.

[1] = test system: HEK 293T cells transfected with pCMV6 negative control; conditions: Table 28; pCMV6 transfected cells (negative control, reference)
Method: as §1
Three isoforms of ALPL exist, isoform 1 (Alkaline phosphatase, placental-like 2 (ALPPL2), NM_031313, which is incorporated by reference herein), isoform 2 (alkaline phosphatase, placental (ALPP), NM_001632, which is incorporated by reference herein), and isoform 3 (alkaline phosphatase, intestinal (ALPLI), NM_001631, which is incorporated by reference herein), that can also be expressed on cell surfaces via a GPI-anchor. […] The transduction assay described above was repeated with the three isoforms. HEK 293T cells were transfected via calcium phosphate transfection with a plasmid expressing ALPL, isoform 1 of ALPL, isoform 2 of ALPL, isoform 3 of ALPL, an AAVR positive control, or a pCMV6 negative control. At 24 hours post-transfection, the HEK 293T cells expressing the ALPL receptor were transduced with an AAV particle comprising the TTM-001 capsid variant or the TTM-002 capsid variant, expressing a Luc2-GFP payload. At 24-hours post-transduction, luciferase activity (RLU) was measured to quantify AAV cellular transduction.
To determine if deletion of the endoplasmic reticulum (ER) localization signal of ALPL affected transduction of the TTM-001 and TTM-002 capsid variants, HEK 293T cells were transfected via calcium phosphate transfection with a plasmid expressing ALPL, ALP with a deletion of the ER localization signal (ALPL transcript variant 2 that lacks the ER signal (NM_001127501, which is incorporated by reference herein)), or a pCMV6 negative control. At 24 hours post-transfection, the HEK 293T cells expressing the ALPL receptor were transduced with an AAV particle comprising the TTM-001 capsid variant, the TTM-002 capsid variant, or an AAV9 capsid control, expressing a GFP payload. At 24-hours post-transduction, luciferase activity (RLU) was measured to quantify AAV cellular transduction. Data was normalized to fold change in luciferase activity (RLU) compared to the pCMV6 control.
as §2
AAV entry factor involved in AAV transduction), or a pCMV6 negative control.

AAVR = target: T2, AAVR; conditions: Table 28; AAVR transfected cells
Method: as §1

| Molecule | Luciferase Activity (fold change relative to pCMV6 transfected cells) (ALPL) [fold] | fold increase in transduction by luciferase assay in cells expressing ALPL (ALPL) | Luciferase Activity (fold change relative to pCMV6 transfected cells) [1] [fold] | Luciferase Activity (fold change relative to pCMV6 transfected cells) (AAVR) [fold] |
| --- | --- | --- | --- | --- |
| B1 | 91 | an increase in transduction | 1 | 25 |
| B2 | 90 | an increase in transduction | 1 | 25 |
| B3 | 88 | an increase in transduction | 1 | 28 |
